The nature of the data set: Lipoxygenase activity of enzyme solutions on α-linolenic acid, reverse-phase HPLC of linolenic acid hydroperoxide. The conditions noted are these: for activity of position 9-product specific lypoxygenase compared with r9-LOX1 (amount of lynolenic acid-9-hydroperoxide): HPLC comparison, FIG. 6; for position 9 product specific lypoxygenase activity (peak of linolenic acid-9-hydroxyperoxide, 21.1 min): α-linolenic acid substrate, pH7.0, 30 minutes reaction, E. coli-expressed enzyme solution. The class given is biochemical. How it is done:
The activity of lypoxygenase in the enzyme solutions of SHLpLOX, 441LpLOX1, 441LpLOX2 and r9-LpLOX1 which was used as a control, was determined. 25 μl of 5 mM α-lynolenic acid solution (including 0.05% Tween80), 10 μl of 0.2M phosphate Na Buffer (pH7.0), 5 μl of distilled water were added to 1.5 ml of tube, and then 10 μl of the enzyme solution was added to the tube, and allowed to react for 30 minutes. After the reaction was over, reactant was subjected to HPLC (reverse phase; Column: Capsule pack C-18 UG120 (4.6×250 mm, Shiseido), Column temperature: 40° C., Mobile phase: 50% acetnitril (0.02%TFA), Flow rate 1 ml/min, Detection: 210 nm) so as to detect the site specificity of produced lynolenic acid hydroperoxide and the production amount.
The amount of lynolenic acid-9-hydroperoxide form was compared based on the results of HPLC.

The text below walks through data of patent US20130224829A1, “NOVEL LIPOXYGENASE DERIVED FROM LEMNA PAUCICOSTATA” (priority 2010, published 2013).

B1: SHLpLOX: Position 9 product specific lipoxygenase obtained from Lemna paucicostata SH strain (SEQ ID NO: 2), expressed in Escherichia coli (protein, listed as Lemna paucicostata)
chain: MAGFLQKVTDNLLHKAAKISGTVVLVKSNVVGFNDFADSFLDGLHELLGSGITFQLVSATVGDPKNGNKGKLGKPALLEKWITTGTFLAAGDSGFKVNFEWDEQLGVPGAVIVKNNHHGEFFLKSLTLDGAPGPRSRIHFDCNSWVYPYSTYNYDRVFFANDTYLPGEMPEPLKAYRAAELVNLRGDGVTRELKEGDRIYAYDLYNDLGDPDSGKELARPILGGSEEYPYPRRARTGRKLTKTDPKSEQRLPLVFSLNVYVPRDERFGHLKMSDFLAYSLKALAQGLVPALDAATDITPFEFDTFQDVLNLYEGGINLPTTPALENFKKQIPFPLVKELFRSDGENLFRLPTPSVIKADKFAWRTDEEFGREMLAGVNPVCIRLLKKFPPVSSLDPSIYRNQNSTMIADQLEKNMNGLSVEEALKQKKLFILDHHDSLMPYLERINTFNKIYASRTVLLLQDDGTLKPLAIELSLPVKGEKGAVSKVYTPAEHGVEGAVWQLAKAYVAVNDSGVHQLISHWLNTHATIEPFSIALNRQLSVVHPIYKLLHPHFRDTMNINAFARQILINAGGILEMTVFPGKYAMEMSSVVYKGWKLTDQALPVDLLNRGVAEKDPSSGELRLLIEDYPYAVDGLDVWNAIEEWVKEYCAIYYPSDKTLQDDTEVQAWWKEVREVGHGDKKDETWWPAMETVAELTQTCSTIIWVASALHAAVNFAQYPYAGYLPNRPTISRRFMPEPGTPEYEELETDPDRAFLKTITSQLQTLIGVSLIEILSRHSSDEIYLGQRVSAEWTSDAKALAAFKAFGEKLITIENKIIEMNVDSSLKNRNGPVKVPYTFLYPNTTDYTRVGGLTGRGIPNSISI
Take B1: the “activity of position 9-product specific lypoxygenase compared with r9-LOX1 (amount of lynolenic acid-9-hydroperoxide)” value is “far higher activity” and the “position 9 product specific lypoxygenase activity (peak of linolenic acid-9-hydroxyperoxide, 21.1 min)” value is “have position 9 product specific lypoxygenase activity”.

B2: 441LpLOX1: Position 9 product specific lipoxygenase 1 obtained from Lemna paucicostata 441 strain (SEQ ID NO: 4) (protein, listed as Lemna paucicostata)
chain: MDAFIHKVTDVFTHKEENKVAKISGTVVIVKSNVVGFNDFVDSFLDGLHELVGSGITFQLISATVGDPKNGNKGKLGKPAQLERWITTGTFLAAGDSGFKLTFEWDEQLGFPGAVIVKNNHHGEFFLKSFTLDGVPGKKTRIHFDCNSWVYPYSTYNYDRVFFANDTFLPGNMPEPLKAYRAAELANLRGDGVAPRELKEGDRIYAYDVYNDLGDPDSGEELVRPILGGSKEYPYPRRARTGRKMTKTDPKSETRLPLLFSLNVYVPRDERFGHLKMSDFLGYSLKALAQGLVPVLNEAADLTPFEFDTFQDVLNLYEGGIDLPDSPALENVRKQIPFALIKELFRSDGENLFRLPTPAVIKADKFAWRTDEEFGREMLAGVNPVCIRLLTKFPPVSSLDPNTYGDHNSTMTADQLEKNMNGLSVEEALNKKKLFILDHHDSLMPYLERINTFNKIYASRTVLLLQDDGTLKPLAIELSLPIKGQKGAVSKVYTPAEHGVEAAVWQLAKAFAAVNDSGVHQLISHWLNTHATIEPFAIALNRQLSVVHPIYKLLHPHFRDTMNINAFARQILINAGGILEMTVFPGKYALEMSSVVYKGWKLIDHALPVDLLNRGVAENDPSAPGKLRLLIEDYPYAVDGLAVWSAIEIWVKEYCAIYYPSDKILQDDTELQAWWKEVREVGHGDKKDETWWPTMKTVAELTQTCCTIIWVASALHAAVNFGQYPYAGYLPNRPTVSRRFMPEPGTPEYEELKTDPDRAFLKTITSQLQTTIGVSLIEILSRHSSDEVYLGQRISAEWTTDEKALAAFKAFGERLITIENQIIEMNHEPKLKNRNGPVKLPYTLLYPNTSDYTRVGGLTGRGIPNSVSI
For B2, the “activity of position 9-product specific lypoxygenase compared with r9-LOX1 (amount of lynolenic acid-9-hydroperoxide)” value is “far higher activity” and the “position 9 product specific lypoxygenase activity (peak of linolenic acid-9-hydroxyperoxide, 21.1 min)” value is “have position 9 product specific lypoxygenase activity”.

B3: 441LpLOX2: Position 9 product specific lipoxygenase 2 obtained from Lemna paucicostata 441 strain (SEQ ID NO: 6) (protein, listed as Lemna paucicostata)
chain: MADFLQKVTNNLLHKAAKISGTVVLVKSNVIGFNDFGDSFLDGLHELLGSGITFQLVSATVGDPNNGNKGKLGKPALLEKWITTGTFLVAGDSGFKVNFEWDEQLGIPGAVIVKNNHHGEFFLKSFTLDGVPGPRSRIHFDCNSWVYPYSTYNYDRVFFANDTYLPGETPEPLKAYRAAELVNLRGDGVTRELKEGDRIYAYDYYNDLGDPDSGKELARPILGGSKEYPYPRRARTGRKLTKTDPKSEQRLPLVFSLNVYVPRDERFGHLKMSDFLAYSLKALAQGLVPALDAAADITPFEFDTFQDVLNLYEGGINLPTTPASENFKKQIPFPLVKELFRSDGENVFRLPTPSVIKADKFAWRTDEEFGREMLAGVNPVCIRLLTKFPPVSSLDPSIYGNQNSTMIADQLEKNMNGLSVEEALKQKKLFILDHHDSLMPYLERINTFNKIYASRTVLLLRDDGTLKPLAIELSLPIKGEKGAVSKVYTPAEHGVEGAVWQLAKAYVAVNDSGVHQLISHWLNTHATIEPFSIALNRQLSVVHPIYKLLHPHFRDTMNINAFARQILINAGGILEMTVFPGKYAMEMSSVVYKGWKLTDQALPVDLLNRGVAEKDPSSGELRLLIEDYPYAVDGLDVWNAIEEWVKEYCAIYYPSDKTLLDDTELQAWWKEVREVGHGDKKDETWWPAMETVAELTQTCCTIIWVASALHAAVNFAQYPYAGYLPNRPTISRRFMPEPGTPEYEELETDPDRAFLKTITSQLQTLIGVSLIEILSRHSSDEIYLGQRVSAEWTSDAKALAAFKAFGEKLITIENKIIQMNVDSSLKNRNGPVKVPYTFLYPNTTDYTRVGGLTGRGIPNSISI
On to B3, for which the “position 9 product specific lypoxygenase activity (peak of linolenic acid-9-hydroxyperoxide, 21.1 min)” value was “have position 9 product specific lypoxygenase activity”.
